Source: publication PMC8787476

Biological target: PERV TM_(493–587) (tag intact) (porcine endogenous retrovirus A (PERV-A))
Assay: SEC; Superdex 75 10/300 GL in 10 mM Tris-HCl, pH 7.5, 150 mM NaCl; calibrated with protein standards (Kav curve); apparent MW ~43 kDa against theoretical trimeric MW 39.9 kDa

Question: “PERV TM_(493–587) (tag intact) (domain or fragment)” was tested. Which stoichiometry N did it give?
Answer: 3
